According to patent US20110104176A1 (SAMSUNG ELECTRONICS, published 2011):

Assays:
[1] = target: human c-Met/Fc fusion protein (R&D Systems) (human) (UniProt P08581); assay: ELISA, c-Met/Fc coated at 2 ug/ml, goat anti-mouse IgG-HRP, OPD
[2] = target: mouse c-Met/Fc fusion protein (R&D Systems) (mouse) (UniProt P16056); assay: as above
[3] = target: T1, human c-Met protein (immobilized on a CM5 chip) (human, UniProt P08581 25-932, limits assumed); assay: SPR (Biacore), human c-Met immobilized on a CM5 chip, antibody in flow
T1 sequence (P08581 25-932 limits assumed): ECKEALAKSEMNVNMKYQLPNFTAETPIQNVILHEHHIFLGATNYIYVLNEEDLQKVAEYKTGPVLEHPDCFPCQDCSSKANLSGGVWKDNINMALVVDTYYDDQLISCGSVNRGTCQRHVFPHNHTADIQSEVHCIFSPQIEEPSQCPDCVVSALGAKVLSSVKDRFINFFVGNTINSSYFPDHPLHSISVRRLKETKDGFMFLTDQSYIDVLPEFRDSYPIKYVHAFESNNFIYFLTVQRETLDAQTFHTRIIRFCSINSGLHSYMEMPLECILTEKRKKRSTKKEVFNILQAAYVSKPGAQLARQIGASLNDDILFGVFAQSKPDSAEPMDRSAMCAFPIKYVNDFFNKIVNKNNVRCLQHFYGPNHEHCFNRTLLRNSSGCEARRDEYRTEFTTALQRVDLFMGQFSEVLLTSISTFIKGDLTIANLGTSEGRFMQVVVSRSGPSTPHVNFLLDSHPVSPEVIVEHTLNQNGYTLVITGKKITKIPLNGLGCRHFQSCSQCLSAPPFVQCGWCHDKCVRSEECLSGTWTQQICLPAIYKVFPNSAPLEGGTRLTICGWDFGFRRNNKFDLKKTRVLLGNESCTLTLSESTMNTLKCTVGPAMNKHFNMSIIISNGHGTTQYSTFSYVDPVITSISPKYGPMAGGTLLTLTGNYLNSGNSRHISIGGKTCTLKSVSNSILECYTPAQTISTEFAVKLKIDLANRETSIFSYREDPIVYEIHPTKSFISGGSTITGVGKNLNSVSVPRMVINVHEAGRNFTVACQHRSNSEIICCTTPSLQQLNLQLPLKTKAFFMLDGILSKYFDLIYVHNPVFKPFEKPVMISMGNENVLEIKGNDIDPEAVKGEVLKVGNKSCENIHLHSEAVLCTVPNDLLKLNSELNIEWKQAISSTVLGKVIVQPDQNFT
Experimental: (§1) A surface plasmon resonance (SPR) device (Biacore) was used to measure the binding affinity of the monoclonal antibody AbF46 prepared in Example 1 to human c-Met protein. The human c-Met protein was first immobilized on a CM5 chip, and the monoclonal antibody AbF46 was allowed to flow into a microfluidic chamber to obtain kₐ (on) and kb (off) values as illustrated in FIG. 2. Then, the Kd value was calculated from the kₐ and kb values. […] In addition, the Chi² value, which represents the reliability of the experiment, was 0.822 (in a Biacore analysis method, a Chi² value of 1 or less indicates high reliability of the data).

[4] = target: T1, human c-Met protein (immobilized on a …); assay: SPR (Biacore), human c-Met immobilized on a CM5 chip, AbF46 flowed over
Experimental: as §1

Sequence of human c-Met/Fc fusion protein (R&D Systems) (human) (P08581 25-932 limits assumed): as above
Sequence of mouse c-Met/Fc fusion protein (R&D Systems) (mouse) (P16056 25-931 limits assumed): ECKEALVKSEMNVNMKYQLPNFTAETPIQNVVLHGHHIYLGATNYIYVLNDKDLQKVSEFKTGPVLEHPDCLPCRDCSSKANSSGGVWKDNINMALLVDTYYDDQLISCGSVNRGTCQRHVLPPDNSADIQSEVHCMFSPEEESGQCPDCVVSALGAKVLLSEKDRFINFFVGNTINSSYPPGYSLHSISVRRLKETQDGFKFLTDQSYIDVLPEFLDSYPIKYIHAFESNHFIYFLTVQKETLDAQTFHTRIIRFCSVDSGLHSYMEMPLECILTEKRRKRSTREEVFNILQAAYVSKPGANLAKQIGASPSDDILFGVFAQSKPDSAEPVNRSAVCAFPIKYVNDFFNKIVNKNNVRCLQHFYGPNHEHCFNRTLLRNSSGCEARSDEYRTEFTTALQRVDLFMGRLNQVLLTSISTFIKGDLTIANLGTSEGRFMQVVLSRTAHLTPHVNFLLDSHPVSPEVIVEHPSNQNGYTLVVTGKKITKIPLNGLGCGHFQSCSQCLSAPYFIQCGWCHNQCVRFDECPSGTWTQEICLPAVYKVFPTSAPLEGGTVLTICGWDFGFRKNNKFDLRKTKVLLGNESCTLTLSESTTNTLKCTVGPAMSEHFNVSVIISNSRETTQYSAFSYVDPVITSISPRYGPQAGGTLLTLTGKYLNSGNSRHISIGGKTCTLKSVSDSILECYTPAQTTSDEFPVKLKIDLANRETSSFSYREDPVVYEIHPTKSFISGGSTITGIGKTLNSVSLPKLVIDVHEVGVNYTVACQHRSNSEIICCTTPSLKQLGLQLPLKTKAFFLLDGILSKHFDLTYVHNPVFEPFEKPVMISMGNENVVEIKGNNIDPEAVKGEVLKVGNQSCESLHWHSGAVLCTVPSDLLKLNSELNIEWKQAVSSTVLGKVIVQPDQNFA

Row | Molecule | absorption at 450 nm [1] | absorption at 450 nm [2] | Kd [3] | koff [4] | kon [4]
1 | 5D5 (Genentech), monoclonal antibody against human c-Met | 0.373 | 0.113 | – | – | –
2 | monoclonal antibody AbF46 (antibody, IgG1, V domains shown, also called SAIT-MET-AbF46 (hybridoma cell line); antibody of hybridoma KCLRF-BP-00220) VH: EVKLVESGGGLVQPGGSLRLSCATSGFTFTDYYMSWVRQPPGKALEWLGFIRNKANGYTTEYSASVKGRFTISRDNSQSILYLQMDTLRAEDSATYYCARDNWFAYWGQGTLVTVSA VL: DILMTQSPSSLTVSAGEKVTMSCKSSQSLLASGNQNNYLAWHQQKPGRSPKMLIIWASTRVSGVPDRFIGSGSGTDFTLTINSVQAEDLAVYYCQQSYSAPLTFGAGTKLELKR | – | – | 4 nM | 0.00155 s⁻¹ | 385000 M⁻¹ s⁻¹
